In paper PMC4549301 (2015):

B1: GST–HCF-1rep1, wild type (HCF-1 residues 867–1071) [human] / Recombinant human O-linked β-N-acetylglucosamine transferase (OGT), wild type [human] (parent)
chain 1: PAVTTLVVKGTTGVTTLGTVTGTVSTSLAGAGGHSTSASLATPITTLGTIATLSSQVINPTAITVSAAQTTLTAAGGLTTPTITMQPVSQPTQVTLITAPSGVEAQPVHDLPVSILASPTTEQPTATVTIADSGQGDVQPGTVTLVCSNPPCETHETGTTNTATTTVVANLGGHPQPTQVQFVCDRQEAAASLVTSTVGQQNGSV
chain 2: MASSVGNVADSTGLAELAHREYQAGDFEAAERHCMQLWRQEPDNTGVLLLLSSIHFQCRRLDRSAHFSTLAIKQNPLLAEAYSNLGNVYKERGQLQEAIEHYRHALRLKPDFIDGYINLAAALVAAGDMEGAVQAYVSALQYNPDLYCVRSDLGNLLKALGRLEEAKACYLKAIETQPNFAVAWSNLGCVFNAQGEIWLAIHHFEKAVTLDPNFLDAYINLGNVLKEARIFDRAVAAYLRALSLSPNHAVVHGNLACVYYEQGLIDLAIDTYRRAIELQPHFPDAYCNLANALKEKGSVAEAEDCYNTALRLCPTHADSLNNLANIKREQGNIEEAVRLYRKALEVFPEFAAAHSNLASVLQQQGKLQEALMHYKEAIRISPTFADAYSNMGNTLKEMQDVQGALQCYTRAIQINPAFADAHSNLASIHKDSGNIPEAIASYRTALKLKPDFPDAYCNLAHCLQIVCDWTDYDERMKKLVSIVADQLEKNRLPSVHPHHSMLYPLSHGFRKAIAERHGNLCLDKINVLHKPPYEHPKDLKLSDGRLRVGYVSSDFGNHPTSHLMQSIPGMHNPDKFEVFCYALSPDDGTNFRVKVMAEANHFIDLSQIPCNGKAADRIHQDGIHILVNMNGYTKGARNELFALRPAPIQAMWLGYPGTSGALFMDYIITDQETSPAEVAEQYSEKLAYMPHTFFIGDHANMFPHLKKKAVIDFKSNGHIYDNRIVLNGIDLKAFLDSLPDVKIVKMKCPDGGDNADSSNTALNMPVIPMNTIAEAVIEMINRGQIQITINGFSISNGLATTQINNKAATGEEVPRTIIVTTRSQYGLPEDAIVYCNFNQLYKIDPSTLQMWANILKRVPNSVLWLLRFPAVGEPNIQQYAQNMGLPQNRIIFSPVAPKEEHVRRGQLADVCLDTPLCNGHTTGMDVLWAGTPMVTMPGETLASRVAASQLTCLGCLELIAKNRQEYEDIAVKLGTDLEYLKKVRGKVWKQRISSPLFNTKQYTMELERLYLQMWEHYAAGNKPDHMIKPVEVTESA

Variants of: B1
Assay: in vitro HCF-1rep1-OGT binding assay (OGT pull-down, quantified immunoblot)
Conditions: with Recombinant human O-linked β-N-acetylglucosamine transferase (OGT), in the presence of UDP-GlcNAc, read off a plot

Row | screen value (log2 fold change) | Variant
1 | 0.8 | chain 1 E153A
